Data taken from US20080286310A1.

Molecular target: Translocated intimin receptor Tir of EHEC O157:H7 (enterohemorrhagic Escherichia coli O157:H7) (UniProt Q7DB77)
Assay: cell-based or functional assay

Chain of UniProt Q7DB77 (Q7DB77 whole entry): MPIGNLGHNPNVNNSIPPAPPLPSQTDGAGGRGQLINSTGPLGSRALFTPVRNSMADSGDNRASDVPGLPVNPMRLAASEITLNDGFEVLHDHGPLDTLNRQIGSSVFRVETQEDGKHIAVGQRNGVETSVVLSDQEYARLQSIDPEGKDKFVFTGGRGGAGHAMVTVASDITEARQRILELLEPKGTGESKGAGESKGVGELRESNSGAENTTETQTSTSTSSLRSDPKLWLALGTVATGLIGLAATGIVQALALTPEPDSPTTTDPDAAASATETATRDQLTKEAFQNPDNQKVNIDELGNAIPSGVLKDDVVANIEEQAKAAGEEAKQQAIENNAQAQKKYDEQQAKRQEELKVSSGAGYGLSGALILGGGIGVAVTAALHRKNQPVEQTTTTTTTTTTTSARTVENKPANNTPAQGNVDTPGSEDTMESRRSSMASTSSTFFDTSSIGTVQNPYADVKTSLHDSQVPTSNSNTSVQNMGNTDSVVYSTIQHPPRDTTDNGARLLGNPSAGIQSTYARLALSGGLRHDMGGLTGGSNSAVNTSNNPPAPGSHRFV

Substance: Native intimin of EHEC O157:H7 strain 86-24 (from UniProt P43261 40-934)
- microcolonies on HeLa cells (percent of cells): 47%
